Patent EP4386000 (dated 2024)
Substitutions are numbered along the chain they refer to. Each block holds one binder with its values, some of them ahead of it.

Legend:
mouse CD25-his = molecular target: T1, mouse CD25-his (mouse, UniProt P01590); assay: ELISA
T1 chain: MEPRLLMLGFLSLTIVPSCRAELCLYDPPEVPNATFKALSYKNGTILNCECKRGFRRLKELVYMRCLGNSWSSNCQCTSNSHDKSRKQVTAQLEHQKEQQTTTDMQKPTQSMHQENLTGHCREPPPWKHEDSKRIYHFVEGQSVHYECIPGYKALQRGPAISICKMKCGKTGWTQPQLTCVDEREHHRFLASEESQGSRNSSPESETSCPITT

[1] = molecular target: T2, human CD25 on CHO-K1 cells (human, UniProt P01589); assay: FACS
T2 chain: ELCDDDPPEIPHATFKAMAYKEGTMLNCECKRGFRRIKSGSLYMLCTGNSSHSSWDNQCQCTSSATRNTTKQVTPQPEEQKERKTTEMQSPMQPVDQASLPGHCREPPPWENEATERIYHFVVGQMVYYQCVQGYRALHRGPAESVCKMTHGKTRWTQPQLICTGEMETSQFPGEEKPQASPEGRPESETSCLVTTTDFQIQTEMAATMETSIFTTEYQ

human CD25-his [2] = molecular target: T3, human CD25-his (human, UniProt P01589); assay: ELISA
T3 chain: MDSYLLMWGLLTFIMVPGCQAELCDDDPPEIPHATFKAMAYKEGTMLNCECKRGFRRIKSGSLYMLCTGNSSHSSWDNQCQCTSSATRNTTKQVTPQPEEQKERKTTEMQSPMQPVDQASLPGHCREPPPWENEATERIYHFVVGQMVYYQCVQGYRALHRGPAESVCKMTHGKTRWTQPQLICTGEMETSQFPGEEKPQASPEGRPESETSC

human CD25-his [3] = molecular target: T3, human CD25-his; assay: SPR, 25C

binding result (mouse CD25-his): no binding
B1: 2046-24H2L1 (2046-24ix) (antibody, V domains shown)
VH: DVQLQESGPGLVKPSQSLSLTCTVTGYSITSDYAWNWIRQFPGNKLEWMGYISYGGTTIYNPSLKSRISITRDTSKNQFFLQLNSVTTEDTATYYCARWLLQNYYAMDYWGQGTSVTVSS
VL: DVVMTQTPLSLPVSLGDQASISCRSSQSLVHSNGNTYLHWYLQKPGQSPKVLIYKVSNRFSGVPDRFSGSGSGTDFTLKISRVEAEDLGVYFCSQNTHVPLTFGAGTKLELK

EC50 [1]: 0.00114 mg/L | EC50 (human CD25-his [2]): 0.144 mg/L | binding result (mouse CD25-his): no binding | Kd (human CD25-his [3]): 9.44 nM
B2: 2046-61H1L2 (2046-61ix) (antibody)
chain 1: B1 VH with G55S, T57G
chain 2: B1 VL with Y41N, V51L, N96S, G104S

binding result (mouse CD25-his): no binding
B3: 2046-18H1L1 (2046-18ix) (antibody, V domains shown)
VH: B1 VH with G55S, T57I, N103I
VL: B1 VL with R24S, Q43H, V51L, N96S

binding result (mouse CD25-his): no binding
B4: 2046-111H2L1 (2046-111ix) (antibody, V domains shown)
VH: B1 VH with Y27H, G55S, T57S
VL: B1 VL with Q43R, V51L, N96S

binding result (mouse CD25-his): no binding
B5: 2046-2H1L1 (2046-2ix) (antibody, V domains shown)
VH: B1 VH with Q40H, S53T, G55S, T57S, I59V, Q78H, N103I
VL: B1 VL with V51L, N96S

binding result (mouse CD25-his): no binding
B6: 2047-3H8L2 (2047-3ix) (antibody, V domains shown)
VH: QVQLKQSGAELVKPGASVKMSCKTSGYTFTDYVISWVKQRTGQGLEWIGEIYPGSGSTYYNEKFKGKATLTADISSNTAYMQLSSLTSEDSAVYFCASINFDYWGHGTTLTVSS
VL: DIVMTQSPATLSVTPGDRVSLSCRASQSISDYLHWYQQKSHESPRLLIKYASQSISGIPSRFSGSGSGSDFTLSINSVEPEDVGVYYCQNGHSFPYTFGGGTKLEIK

binding result (mouse CD25-his): no binding
B7: 2047-10H1L2 (2047-10ix) (antibody, V domains shown)
VH: QVQLQQSGPELVRPGVSVKISCKGSGYTFTDYAMHWVKQSHAKSLEWIGVISTYNGNTNYNQKFKGKATMTVDKSSSTAYMELARLTSEDSAIYYCARSYGNYPFDYWGQGTTLTVSS
VL: DIKMTQSPSSMYASLGERVTITCKASQDINSYLSWFQQKPGKSPKTLIYRANRLVDGVPSRFSGSGSGQDYSLTISSLEYEDMGIYYCLQYDEFPYTFGGGTKLEIK

binding result (mouse CD25-his): no binding
B8: 2046-36H2L1 (2046-36ix) (antibody, V domains shown)
VH: QIQLVQSGPELKKPGETVRISCKASGYTFTTAGMQWVQKMPGKGLKWIGWINTHSGVPKYAEDFKGRFAFSLETSASTAYLQISNLKNEDTATYFCASDYAFGYWGQGTLVTVSA
VL: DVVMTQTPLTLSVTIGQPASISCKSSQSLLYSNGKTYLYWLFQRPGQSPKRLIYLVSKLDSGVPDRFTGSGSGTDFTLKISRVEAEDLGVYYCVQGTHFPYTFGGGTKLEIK
